Data published in the Immune Epitope Database (IEDB).

Experiments:
Assay in all cases: IEDB peptide-MHC binding, purified MHC/competitive/radioactivity; filed as Kd, often an IC50 or EC50 that approximates it; ≥ and ≤ were set here for values at or beyond the usual limits of such assays
[1] = biological target: HLA-A*03:01
[2] = biological target: HLA-A*11:01
[3] = biological target: HLA-A*31:01
[4] = biological target: HLA-A*33:01
[5] = biological target: HLA-A*68:01
[6] = source organism: SARS coronavirus Tor2
[7] = source organism: Dengue virus 4 Philippines/H241/1956
[8] = source organism: Vaccinia virus WR
[9] = source organism: Dengue virus 3 Martinique/1243/1999
[10] = source organism: Dengue virus 1 Brazil/97-11/1997
[11] = source organism: Mammarenavirus lassaense
[12] = source organism: Lassa virus Josiah
[13] = source organism: Vaccinia virus Copenhagen

Sequence	Kd [1, 8] [nM]	Kd [2, 8] [nM]	Kd [3, 8] [nM]	Kd [4, 8] [nM]	Kd [5, 8] [nM]	also measured
AMPNLYKMQR	–	–	–	–	–	Kd [1, 6]: 1040 nM; Kd [2, 6]: 1010 nM; Kd [3, 6]: 240 nM; Kd [4, 6]: 11700 nM; Kd [5, 6]: 1970 nM
ATTILTPMLR	–	–	–	–	–	Kd [2, 7]: 129 nM; Kd [3, 7]: 77.3 nM; Kd [5, 7]: 284 nM
AVNKSNKPLK	1090	147	1560	≥ 47000	5960	–
CIRNASKFVY	17500	19900	≥ 70000	≥ 70000	≥ 37000	–
CMTSCCSCLK	–	–	–	–	–	Kd [1, 6]: 62.7 nM; Kd [2, 6]: 80.8 nM; Kd [3, 6]: 800 nM; Kd [4, 6]: 1860 nM; Kd [5, 6]: 40.2 nM
CVDIFTEGK	3750	78.3	16300	≥ 77700	18.6	–
DFLKDDTLSK	15000	5760	≥ 70000	8000	10700	–
DFRDYQSYR	≥ 78000	13600	74.5	0.837	1020	–
DFWKLVDRER	–	–	–	–	–	Kd [4, 9]: 1.51 nM
DIFMRDWNSK	≥ 70100	4230	12400	548	74.2	–
DILSIIDAK	876	428	≥ 77900	896	49.7	–
DLLFNEKLK	1920	188	8150	744	29.2	–
DQAMTQMYK	–	–	–	–	–	Kd [1, 6]: 2560 nM; Kd [2, 6]: 866 nM; Kd [3, 6]: 6970 nM; Kd [4, 6]: 8450 nM; Kd [5, 6]: 121 nM
DSDVSLIIEY	4820	2730	10300	4690	205	–
DSYTQMCDHR	–	–	–	–	–	Kd [4, 10]: 335 nM
DVSLSAYIIR	2410	609	387	1120	240	–
EIARIENEMK	5610	3630	≥ 70000	7050	7.11	–
ENAVWDQCK	–	–	–	–	–	Kd [1, 11]: ≥ 78000 nM; Kd [2, 11]: ≥ 77900 nM; Kd [3, 11]: ≥ 77900 nM; Kd [4, 11]: ≥ 38000 nM; Kd [5, 11]: 1480 nM

Sequence	Kd [1, 8] [nM]	Kd [2, 8] [nM]	Kd [3, 8] [nM]	Kd [4, 8] [nM]	Kd [5, 8] [nM]	also measured
EWLWRTLGR	–	–	–	–	–	Kd [4, 9]: 8.26 nM
FFASFYYIWK	–	–	–	–	–	Kd [1, 6]: 285 nM; Kd [2, 6]: 243 nM; Kd [3, 6]: 734 nM; Kd [4, 6]: 60.9 nM; Kd [5, 6]: 86.2 nM
FIQWTGGNIR	≥ 29800	≥ 22000	3860	2050	112	–
FLWTQSLRR	–	–	–	–	–	Kd [1, 12]: 40.7 nM; Kd [2, 12]: 723 nM; Kd [3, 12]: 2050 nM; Kd [4, 12]: 2900 nM; Kd [5, 12]: 320 nM
FQGKFKKIVK	–	–	–	–	–	Kd [1, 6]: 9460 nM; Kd [2, 6]: 2880 nM; Kd [3, 6]: 13400 nM; Kd [4, 6]: ≥ 24700 nM; Kd [5, 6]: ≥ 24200 nM
FSSLRREHIK	1020	277	144	17400	94.1	–
GFNTLKPIFK	–	–	–	–	–	Kd [1, 6]: 140 nM; Kd [2, 6]: 105 nM; Kd [3, 6]: 1830 nM; Kd [4, 6]: 19600 nM; Kd [5, 6]: 1960 nM
GLYNHNNTTY	21	75.5	7950	14200	938	–
GSSKGNCAIK	25	26.1	3480	≥ 29100	23.1	–
GVRVRVAVNK	52.2	840	12100	≥ 70000	2190	–
HIIDSFNIR	1680	149	1.12	732	0.448	–
HVCNATDFWR	6760	450	8.14	383	37.9	–
IIPALFEPER	–	–	–	–	–	Kd [5, 10]: 76.7 nM
IISIRPRVTK	55.5	125	425	5690	180	–
ILAALFMYY	0.175	0.309	6400	16000	36.3	–
ILCFTIKRK	–	–	–	–	–	Kd [1, 6]: 1000 nM; Kd [2, 6]: 7710 nM; Kd [3, 6]: 6680 nM; Kd [4, 6]: ≥ 45000 nM; Kd [5, 6]: 17200 nM
ILEYLYIMR	1570	1090	97.6	426	303	–
ILNFLDWIK	–	–	–	–	–	Kd [1, 13]: 189 nM; Kd [2, 13]: 155 nM; Kd [3, 13]: 427 nM; Kd [4, 13]: 1290 nM; Kd [5, 13]: 158 nM
